# Laboratory results: patent US20200339959A1 (Memorial Sloan Kettering, published 2020)
# Tests used:
# [1] = target: T1, Flag-tagged human IRF3 (human, UniProt Q14653 1-427); test: co-immunoprecipitation from HEK293T lysates: IP anti-C7, blot anti-Flag
# T1 construct: also called transcription factor IRF3; not shown: Flag tag
# T1 sequence: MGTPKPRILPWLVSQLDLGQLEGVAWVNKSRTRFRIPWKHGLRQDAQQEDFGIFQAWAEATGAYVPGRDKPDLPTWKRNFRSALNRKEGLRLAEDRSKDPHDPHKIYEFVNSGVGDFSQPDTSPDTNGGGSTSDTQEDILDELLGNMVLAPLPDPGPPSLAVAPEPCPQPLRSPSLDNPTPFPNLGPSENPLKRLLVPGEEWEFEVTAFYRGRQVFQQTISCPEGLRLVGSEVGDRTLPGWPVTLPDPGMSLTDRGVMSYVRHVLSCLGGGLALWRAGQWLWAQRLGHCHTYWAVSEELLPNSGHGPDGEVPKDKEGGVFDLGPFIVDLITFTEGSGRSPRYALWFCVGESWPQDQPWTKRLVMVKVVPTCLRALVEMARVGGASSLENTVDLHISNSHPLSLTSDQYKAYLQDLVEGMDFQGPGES
# [2] = target: T2, Flag-tagged human STAT1 (human, UniProt P42224 1-750); test: co-immunoprecipitation from HEK293T lysates: IP anti-HA, blot anti-Flag
# T2 construct: also called flag-STAT1; not shown: Flag tag
# T2 sequence: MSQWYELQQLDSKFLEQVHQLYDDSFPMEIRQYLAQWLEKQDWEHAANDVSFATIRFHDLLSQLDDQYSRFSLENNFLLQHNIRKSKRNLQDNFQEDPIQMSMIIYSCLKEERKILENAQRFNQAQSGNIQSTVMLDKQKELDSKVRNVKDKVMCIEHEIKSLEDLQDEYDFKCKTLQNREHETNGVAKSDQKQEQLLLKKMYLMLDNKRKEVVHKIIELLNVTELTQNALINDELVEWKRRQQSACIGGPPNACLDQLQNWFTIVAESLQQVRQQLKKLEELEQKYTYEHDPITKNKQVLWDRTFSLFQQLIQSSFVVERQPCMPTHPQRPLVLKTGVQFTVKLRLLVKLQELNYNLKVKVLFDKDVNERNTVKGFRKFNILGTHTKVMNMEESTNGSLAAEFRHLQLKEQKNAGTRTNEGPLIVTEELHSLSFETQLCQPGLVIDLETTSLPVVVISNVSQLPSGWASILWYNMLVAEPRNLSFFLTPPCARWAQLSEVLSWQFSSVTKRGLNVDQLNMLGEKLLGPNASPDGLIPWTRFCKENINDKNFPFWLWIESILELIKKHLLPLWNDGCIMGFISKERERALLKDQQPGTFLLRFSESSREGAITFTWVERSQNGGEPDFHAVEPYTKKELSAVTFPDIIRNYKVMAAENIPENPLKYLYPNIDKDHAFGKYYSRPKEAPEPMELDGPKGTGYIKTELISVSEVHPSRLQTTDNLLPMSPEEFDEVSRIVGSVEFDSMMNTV
# [3] = target: T3, Flag-tagged human STAT2 (human, UniProt P52630 1-851); test: as above
# T3 construct: also called flag-STAT2; not shown: Flag tag
binder,measurement,setting,value
"vaccinia virus C7 protein (other, also called vaccinia C7; C7L gene product) MGIQHEFDIIINGDIALRNLQLHKGDNYGCKLKIISNDYKKLKFRFIIRPDWSEIDEVKGLTVFANNYAVKVNKVDDTFYYVIYEAVIHLYNKKTEILIYSDDENELFKHYYPYISLNMISKKYKVKEENYSSPYIEHPLIPYRDYESMD",binding result,[1],binds
"HA-tagged vaccinia C7 (other, also called C7-HA; HA-tagged C7) MGIQHEFDIIINGDIALRNLQLHKGDNYGCKLKIISNDYKKLKFRFIIRPDWSEIDEVKGLTVFANNYAVKVNKVDDTFYYVIYEAVIHLYNKKTEILIYSDDENELFKHYYPYISLNMISKKYKVKEENYSSPYIEHPLIPYRDYESMD",binding result,[2],no binding
same,binding result,[3],binds
